Data taken from patent publication US20050064507A1, “Determining kinase specificity” (priority 2003, published 2005).

Biological target: T1, PKC-delta (Homo sapiens, UniProt Q05655)
T1 construct: purchased Calbiochem
Test: In vitro kinase assay: peptide phosphorylation by PKC-delta
Type: biochemical
Settings: for Measured in vitro phosphorylation by PKC-delta: peptide concentration of 10 nM, percentage of phosphorylation of the best validating peptide substrate; for phosphorylation in the in vitro validating assay: PKC-delta
Description: One approach to validating a substrate identification method can involve, for example, comparison of substrate sites predicted by the method with in vitro phosphorylation results obtained using the selected kinase and peptides of known sequences. Such a systematic validation has been performed for the methods described herein. For example, a panel of seventy five peptides was synthesized, the phosphorylation observed for each peptide was experimentally measured, the amount of phosphorylation was quantified, the phosphorylation results for each peptide were normalized to the phosphorylation observed with the best substrate tested and these amounts were compared with predictions made according to the invention and according to the procedures provided by others. These peptides are referred to herein as proteomic peptides because their sequences are chosen from proteins in the human proteome; unlike the test sets employed herein, these peptides include no degenerate positions
Table 2 compares the present predictions with actual measurements of phosphorylation on validating peptides. The method of synthesis of the validating peptides was as described elsewhere in the application, and each included an N-terminal linker sequence of biotinylated-Lys-dansylated-Lys-Pro-Pro-Gly (SEQ ID NO:231). The length of the remaining “core” of the validating peptides ranged from 12-21 residues with one to five S/T residues. In vitro phosphorylation of these validating peptides was measured in the manner described herein. […] In vitro phosphorylation results for the validating peptides were expressed as normalized values, namely as a percentage of phosphorylation of the best validating peptide substrate in the group.
The conditions of the kinase assay and the amount of active kinase used varied with the kinase and with the accuracy needed. For a typical experiment, 5-20 ng of kinase was used per well and each peptide pool was assayed in duplicate wells. Note that the absolute amount of kinase used was not usually a critical parameter, because the desired information related to specificity of the kinase not its absolute activity, and robustness of the assay depends on comparisons of the same amount of kinase on different peptides. The combination of kinase concentration and assay duration was modified to assure that the stoichiometry of peptide phosphorylation never exceeded 5%. The choice of kinase buffer depended on the kinase being analyzed. For studies of PKC, 100 mM HEPES, 0.05% Triton-X100, 1 mM CaCl2, 20 mM MgCl2, 0.2 mg/ml phosphatidyl serine (Avanti Polar Lipids), PMA 100 ng/ml was typically used. The lipid stock was prepared by transferring 3 mg phosphatidyl serine into iced mixture of 450 μl water plus 50 μl of 10% Triton-X100, sonicating 10 times on ice for 1 sec each.
The kinase reaction mixture was assembled by sequential addition to a tube held on ice of: 5 μl peptide (100 μM for final concentration of 10 μM), 15 μl of kinase (typically 5 ng/well, in appropriate kinase buffer), 30 μl of ATP (1 uCi/well of ^32P-gamma ATP in a stock of 167 μM cold ATP in the kinase buffer; for final concentration for 100 μM ATP). The mixture was rapidly warmed to desired reaction temperature (30° C. for PKC) and incubated for the desired duration (usually 10 minutes). The kinase assay was terminated by transfer to 4° C. water batch, and rapid addition of an equal volume (50 μl) of stop solution [0.1M ATP+0.1M EDTA in water, pH 8].
The peptides were then captured from the reaction mixture by transfer to a Reacti-Bind Streptavidin High Binding Capacity Coated Plates (HBC) (Pierce Biotechnology) as follows. The HBC plates were pre-rinsed three times with PBS/Tween PBS/Tween20 0.05% (PBS/Tween). […]

T1 sequence (Q05655 whole entry): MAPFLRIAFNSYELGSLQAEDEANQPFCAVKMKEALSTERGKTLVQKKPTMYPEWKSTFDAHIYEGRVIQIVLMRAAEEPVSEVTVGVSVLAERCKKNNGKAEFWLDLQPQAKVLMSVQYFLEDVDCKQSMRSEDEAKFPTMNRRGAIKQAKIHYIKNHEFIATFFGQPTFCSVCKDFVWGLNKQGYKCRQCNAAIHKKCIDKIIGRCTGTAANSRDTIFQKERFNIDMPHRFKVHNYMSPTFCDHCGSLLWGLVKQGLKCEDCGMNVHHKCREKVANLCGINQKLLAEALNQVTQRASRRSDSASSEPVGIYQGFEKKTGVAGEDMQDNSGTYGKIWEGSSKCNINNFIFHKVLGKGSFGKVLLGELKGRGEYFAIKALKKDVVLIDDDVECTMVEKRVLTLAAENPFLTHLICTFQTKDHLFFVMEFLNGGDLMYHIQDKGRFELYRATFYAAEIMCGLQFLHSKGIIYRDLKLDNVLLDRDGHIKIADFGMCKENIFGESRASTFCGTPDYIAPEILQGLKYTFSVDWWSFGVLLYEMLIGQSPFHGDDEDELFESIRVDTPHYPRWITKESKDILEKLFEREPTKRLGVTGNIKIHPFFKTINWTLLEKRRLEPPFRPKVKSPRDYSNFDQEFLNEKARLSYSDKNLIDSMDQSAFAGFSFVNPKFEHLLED

Substance | Measured in vitro phosphorylation by PKC-delta | phosphorylation in the in vitro validating assay
1 (HVRRRRGTFKRSKLRARD) [compound 1] | 100% | –
2 (KKKKRASFKRKSSKKG) [compound 2] | 76% | –
3 (NRKKKRTSFKRKA) [compound 3] | 66% | –
4 (KFARKSTRRSIRLPE) [compound 4] | 52% | highly phosphorylated
5 (RQRKRKLSFRRRTDKD) [compound 5] | 42% | –
6 (PRLIRRGSKKRPAR) [compound 6] | 40% | –
7 (RKIPKRPGSVHRTPSRQ) [compound 7] | 38% | highly phosphorylated
8 (AARKKRISVKKKQEQ) [compound 8] | 35% | –
9 (QKKSRLRRRASQLKI) [compound 9] | 34% | highly phosphorylated
10 (AQIVKRASLKRGKQ) [compound 10] | 32% | –
11 (KKKFRTPSFLKKSKK) [compound 11] | 25% | highly phosphorylated
12 (KKKKKRFSFKKSFKL) [compound 12] | 24% | –
13 (WKGKRRSKARKKRK) [compound 13] | 22% | –
14 (EYLERRASRRRAV) [compound 14] | 20% | –
15 (RGFLRSASLGRRASFHLE) [compound 15] | 18% | –
16 (DGQKRKKSLRKKLD) [compound 16] | 17% | –
17 (AGWRKKTSFRKPKED) [compound 17] | 17% | –
18 (KKRFSFKKSFKLSGFSFKKN) [compound 18] | 16% | –
19 (AGSFKRNSIKKIV) [compound 19] | 14% | –
20 (GAPPRRSSIRNAH) [compound 20] | 13% | –
21 (KLAVGRHSFSRRSGV) [compound 21] | 12% | –
22 (LLKKRDSFRTPRDSKLE) [compound 22] | 12% | –
23 (QKRHARVTVKYDRRE) [compound 23] | 10% | –

Substance | Measured in vitro phosphorylation by PKC-delta | phosphorylation in the in vitro validating assay
24 (EKIKRSSLKKVDSLKK) [compound 24] | 10% | –
25 (EILSRRPSYRKILND) [compound 25] | 9% | –
26 (ALRRPSLRREADD) [compound 26] | 9% | –
27 (KKRKKKSSKSLAHA) [compound 27] | 8% | –
28 (KRPGKKGSNKRPGKR) [compound 28] | 8% | –
29 (RKNDRKKRYTVVGNP) [compound 29] | 8% | –
30 (KEVVRTDSLKGRRGR) [compound 30] | 7% | –
31 (RKKRKKKSSKSLAHAGVALA) [compound 31] | >5% | –
32 (KATTKKRTLRKNDRK) [compound 32] | >5% | –
34 (EGGDRRASGRRK) [compound 34] | 5% | –
35 (GLLDRKGSWKKLDDM) [compound 35] | 4% | –
36 (GENVLKKSMKSRVKG) [compound 36] | 4% | –
37 (AYIERMNSIHRDLRA) [compound 37] | 3% | –
38 (NYLRRRLSDSNFMAN) [compound 38] | 3% | –
39 (LLGSGKVTDRKAL) [compound 39] | 3% | –
40 (NMEAKKLSKDRMKKY) [compound 40] | 3% | –
41 (FVHQASFKFGQGD) [compound 41] | 3% | –
42 (QPEGLRSLKKPDRKKR) [compound 42] | 3% | –
43 (AWVTVHEKKSSRKSEYL) [compound 43] | 3% | –
44 (VLAKKGTSKTPVPE) [compound 44] | 2% | –
45 (VFREHQRSGSYHVRE) [compound 45] | 2% | –
46 (GQAWGRQSPRRLED) [compound 46] | 2% | –
47 (ARIIGEKSFRRSVVG) [compound 47] | 2% | –

Substance | Measured in vitro phosphorylation by PKC-delta | phosphorylation in the in vitro validating assay
48 (AVNSRRRAGQKKK) [compound 48] | 2% | –
49 (VQQLLRSSNRRLEQL) [compound 49] | 2% | –
50 (ENLRRVATDRRHLGH) [compound 50] | 2% | –
51 (DLLGKKVSTKTLSEDD) [compound 51] | 2% | –
52 (HKHSPEKRGSERKEG) [compound 52] | 2% | –
53 (AKNLKTLQKRDSFIG) [compound 53] | 2% | –
54 (ENLRKVTTDKKSLAY) [compound 54] | 2% | –
55 (DDMEHKTLKITDFG) [compound 55] | 2% | –
56 (EARLGAASLKFGARD) [compound 56] | 2% | –
57 (KNVVKLLSSRRTQDR) [compound 57] | 2% | –
58 (RVKLGTLRRPEGP) [compound 58] | 1% | –
59 (PVNKRSKYTMMK) [compound 59] | 1% | –
60 (LRRKHLGTLNFGGIR) [compound 60] | 1% | poorly phosphorylated
61 (VDNILKKSNKKLEEL) [compound 61] | 1% | –
62 (AVRDMRQTVAVGVIK) [compound 62] | 1% | –
63 (QRQERIFSKRRGQDF) [compound 63] | 1% | –
64 (ALRAPKPTLRYFTTERF) [compound 64] | 1% | poorly phosphorylated
65 (IKVTHKATGKVMVMK) [compound 65] | 1% | –
66 (GFAKKIGSGQKTWTF) [compound 66] | 1% | poorly phosphorylated
67 (AINSRETMFHKERFK) [compound 67] | 1% | –
68 (RGEGHKPSIAHRDFK) [compound 68] | 1% | –
69 (LALTARESSVRSGGAG) [compound 69] | 1% | poorly phosphorylated
